From patent CN116836277A

How the values were obtained:
E2-Albumin偶联物 [1] = experiment: indirect ELISA, E2-Albumin coated 3 ug/ml, antibody 15.63 ng/ml
E2-Albumin偶联物 [2] = experiment: indirect ELISA, E2-Albumin coated 3 ug/ml, antibody 31.3 ng/ml
E2-Albumin偶联物 [3] = experiment: indirect ELISA, E2-Albumin coated 3 ug/ml, antibody 0.00 ng/ml (blank)
E2-Albumin偶联物 [4] = experiment: biosensor (AMC sensor), antibody immobilised at 5 ug/ml, E2-Albumin in gradient
E2-Albumin偶联物 [5] = experiment: indirect ELISA, E2-Albumin coated 3 ug/ml, antibody 125 ng/ml
E2-Albumin偶联物 [6] = experiment: indirect ELISA, E2-Albumin coated 3 ug/ml, antibody 7.81 ng/ml
E2-Albumin偶联物 [7] = experiment: indirect ELISA, E2-Albumin coated 3 ug/ml, antibody 62.5 ng/ml

| OD450 (E2-Albumin偶联物 [1]) [OD450] | OD450 (E2-Albumin偶联物 [2]) [OD450] | OD450 (E2-Albumin偶联物 [3]) [OD450] | Kd (E2-Albumin偶联物 [4]) [nM] | koff (E2-Albumin偶联物 [4]) [s⁻¹] | kon (E2-Albumin偶联物 [4]) [M⁻¹ s⁻¹] | OD450 (E2-Albumin偶联物 [5]) [OD450] | OD450 (E2-Albumin偶联物 [6]) [OD450] | OD450 (E2-Albumin偶联物 [7]) [OD450] | Binder |
| --- | --- | --- | --- | --- | --- | --- | --- | --- | --- |
| 0.366 | 0.94 | 0.01 | 9.84 | 0.00022 | 22400 | 2.06 | 0.22 | 1.52 | Anti-E2 7A4mut1 (antibody) heavy: QVRLQESGPSLVKPSQTLSLTCTISGFSLSGNAITWVRQAPGEVPEWLGGVDNRGSAYYSPALRSRLSITRDTSKSQVSLSLYGVTVEDTAVYYCGRGVWGVDGAGYAHDYWGPGLLVTVSTASTTPPKVYPLTSCCGDTSSSIVTLGCLVSSYMPEPVTVTWNSGALTSGVHTFPAILQSSGLYSLSSVVTVPASTSGAQTFICNVAHPASSTKVDKRVGLSSDYSKCSKPPCVSRPSVFIFPPKPKDSLMITGTPEVTCVVVDVGQGDPEVQFSWFVDNVEVRTARTKPREEQFNSTFRVVSALPIQHDHWTGGKEFKCKVHSKGLPAPIVRTISRAKGQAREPQVYVLAPPQEELSKSTLSVTCLVTGFYPDYIAVEWQRARQPESEDKYGTTTSQLDADGSYFLYSRLRVDKSSWQRGDTYACVVMHEALHNHYTQKSISKPPGK light: QAVVTQLSSVSGSLGQRVSLTCSGSSSNVGSHSVDWFQKLSESGLRIVIYGTRNRPSGVPDRFSGSKSGNTATLTITSLQTEDEADYYCATSDSTTMTYIFGDGTRLTALGQPKSAPSVTLFPPSTEELSTNKATVVCLINDFYPGSVNVVWKADGSTINQNVKTTQASKQSNSKYAASSYLTLTGSEWKSKSSYTCEVTHEGSTVTKTVKPSECS |
| 0.979 | 1.6 | 0.023 | 0.234 | 0.00038 | 1.63e+06 | 2.27 | 0.508 | 2.16 | Anti-E2 7A4mut3 (antibody) heavy: QVRLQESGPSLVKPSQTLSLTCTISGFSLSGNAITWVRQAPGEVPEWLGGVDNRGSAYYSPALRSRLSITRDTSKSQVSLSLYGVTVEDTAVYYCGRGVWGVDGAGYAHDYWGPGLLVTVSTASTTPPKVYPLTSCCGDTSSSIVTLGCLVSSYMPEPVTVTWNSGALTSGVHTFPAILQSSGLYSLSSVVTVPASTSGAQTFICNVAHPASSTKVDKRVGLSSDYSKCSKPPCVSRPSVFIFPPKPKDSLMITGTPEVTCVVVDVGQGDPEVQFSWFVDNVEVRTARTKPREEQFNSTFRVVSALPIQHDHWTGGKEFKCKVHSKGLPAPIVRTISRAKGQAREPQVYVLAPPQEELSKSTLSVTCLVTGFYPDYIAVEWQRARQPESEDKYGTTTSQLDADGSYFLYSRLRVDKSSWQRGDTYACVVMHEALHNHYTQKSISKPPGK light: QAVVTQLSSVSGSLGQRVSITCSGSSSNVGSHSVDWFQKLSESGLRIVIYGTRNRPSGVPDRFSGSKSGNTATLTITSLQTEDEADYYCATSDSTTMTYIFGDGTRLTALGQPKSAPSVTLFPPSTEELSTNKATVVCLINDFYPGSVNVVWKADGSTINQNVKTTQASKQSNSKYAASSYLTLTGSEWKSKSSYTCEVTHEGSTVTKTVKPSECS |
| 0.953 | 1.69 | 0.065 | 0.188 | 0.00032 | 1.7e+06 | 2.25 | 0.497 | 1.94 | Anti-E2 7A4mut2 (antibody, V domains shown) VH: QVRLQESGPSLVKPSQTLSLTCTISGFSISGNAITWVRQAPGEVPEWLGGVDNRGSAYYSPALRSRLSITRDTSKSQVSLSLYGVTVEDTAVYYCGRGVWGVDGAGYAHDYWGPGLLVTVST VL: QAVVTQLSSVSGSLGQRVSLTCSGSSSNVGSHSVDWFQKLSESGLRIVIYGTRNRPSGVPDRFSGSKSGNTATLTITSLQTEDEADYYCATSDSTTMTYIFGDGTRLTALG |
| 0.806 | 1.31 | 0.047 | 0.214 | 0.00044 | 2.06e+06 | 2.26 | 0.461 | 2.12 | Anti-E2 7A4mut4 (antibody, V domains shown) VH: QVRLQESGPSLVKPSQTLSLTCTISGFSLSGNAITWVRQAPGEVPEWLGGVDNRGSAYYSPALRSRLSITRDTSKSQVSLSLYGVTVEDTAVYYCGRGVWGVDGAGYAHDYWGPGLLVTVST VL: QAVVTQLSSVSGSLGQRVSLTCSGSSSNVGSHSVDWFQKLSESGLRIVLYGTRNRPSGVPDRFSGSKSGNTATLTITSLQTEDEADYYCATSDSTTMTYIFGDGTRLTALG |
